Target: F-actin (polymerized rabbit muscle G-actin) (Oryctolagus cuniculus (Rabbit), UniProt P68135)
Test: F-actin co-sedimentation

B1: GST-tagged ENTH domain of rat epsin 1 (protein)
chain: MSTSSLRRQMKNIVHNYSEAEIKVREATSNDPWGPSSSLMSEIADLTYNVVAFSEIMSMIWKRLNDHGKNWRHVYKAMTLMEYLIKTGSERVSQQCKENMYAVQTLKDFQYVDRDGKDQGVNVREKAKQLVALLRDEDRLREER
binding result: no binding
